The values that follow come from PMC10939263.

One assay addresses C1-fused SRC kinases. As to the kind of experiment: split reporter (BiFC, NanoBiT); Gaussia princeps luciferase complementation assay in human HEK293T cells; Gluc2 at the N terminus of SKAP1 or SKAP2 (N2), Gluc1 at the N terminus (N1) or C terminus (C1) of the SRC kinase; 100 ng plasmid pair, PEI; luminescence read in lysate one day later; normalized luminescence ratio (NLR), given relative to wild type or to SKAP2.

The next assay addresses N1-fused SRC kinases. Described as above.

B1: SKAP1 D120K mutant, N2-fused (natural protein)
chain: MQAAALPEEIRWLLEDAEEFLAEGLRNENLSAVARDHRDHILRGFQQIKARYYWDFQPQGGDIGQDSSDDNHSGTLGLSLTSDAPFLSDYQDEGMEDIVKGAQELDNVIKQGYLEKKSKKHSFFGSEWQKRWCVVSRGLFYYYANEKSKQPKGTFLIKGYGVRMAPHLRRDSKKESCFELTSQDRRSYEFTATSPAEARDWVDQISFLLKDLSSLTIPYEEDEEEEEKEETYDDIDGFDSPSCGSQCRPTILPGSVGIKEPTEEKEEEDIYEVLPDEEHDLEEDESGTRRKGVDYASYYQGLWDCHGDQPDELSFQRGDLIRILSKEYNMYGWWVGELNSLVGIVPKEYLTTAFEVEER
In the case of B1, the results for the wild-type normalized NLR, mean over SRC kinases with C1-fused SRC kinases and with N1-fused SRC kinases were 1.49 and 1.17, respectively.

B2: SKAP1 W333K mutant, N2-fused (natural protein)
chain: MQAAALPEEIRWLLEDAEEFLAEGLRNENLSAVARDHRDHILRGFQQIKARYYWDFQPQGGDIGQDSSDDNHSGTLGLSLTSDAPFLSDYQDEGMEDIVKGAQELDNVIKQGYLEKKSKDHSFFGSEWQKRWCVVSRGLFYYYANEKSKQPKGTFLIKGYGVRMAPHLRRDSKKESCFELTSQDRRSYEFTATSPAEARDWVDQISFLLKDLSSLTIPYEEDEEEEEKEETYDDIDGFDSPSCGSQCRPTILPGSVGIKEPTEEKEEEDIYEVLPDEEHDLEEDESGTRRKGVDYASYYQGLWDCHGDQPDELSFQRGDLIRILSKEYNMYGKWVGELNSLVGIVPKEYLTTAFEVEER
For B2, the values for the wild-type normalized NLR, mean over SRC kinases in the assay with C1-fused SRC kinases and with N1-fused SRC kinases were 1.24 and 1.16, respectively.

B3: SKAP1 ΔLink1PH deletion mutant, N2-fused (natural protein)
chain: MQAAALPEEIRWLLEDAEEFLAEGLRNENLSAVARDHRDHILRGFQQIKARYYWDFQPQGGDIGQDDLSSLTIPYEEDEEEEEKEETYDDIDGFDSPSCGSQCRPTILPGSVGIKEPTEEKEEEDIYEVLPDEEHDLEEDESGTRRKGVDYASYYQGLWDCHGDQPDELSFQRGDLIRILSKEYNMYGWWVGELNSLVGIVPKEYLTTAFEVEER
For B3, the results for the wild-type normalized NLR, mean over SRC kinases in the assay with C1-fused SRC kinases and in the assay with N1-fused SRC kinases were 0.96 and 1.57, respectively.

B4: SKAP1 ΔPH deletion mutant, N2-fused (natural protein)
chain: MQAAALPEEIRWLLEDAEEFLAEGLRNENLSAVARDHRDHILRGFQQIKARYYWDFQPQGGDIGQDSSDDNHSGTLGLSLTSDAPFLSDYQDEGMEDIVKGAQELDDLSSLTIPYEEDEEEEEKEETYDDIDGFDSPSCGSQCRPTILPGSVGIKEPTEEKEEEDIYEVLPDEEHDLEEDESGTRRKGVDYASYYQGLWDCHGDQPDELSFQRGDLIRILSKEYNMYGWWVGELNSLVGIVPKEYLTTAFEVEER
With B4, the results for the wild-type normalized NLR, mean over SRC kinases with C1-fused SRC kinases and with N1-fused SRC kinases were 0.87 and 1.35, respectively.

B5: SKAP1 ΔSH3 mutant, N2-fused (domain or fragment)
chain: MQAAALPEEIRWLLEDAEEFLAEGLRNENLSAVARDHRDHILRGFQQIKARYYWDFQPQGGDIGQDSSDDNHSGTLGLSLTSDAPFLSDYQDEGMEDIVKGAQELDNVIKQGYLEKKSKDHSFFGSEWQKRWCVVSRGLFYYYANEKSKQPKGTFLIKGYGVRMAPHLRRDSKKESCFELTSQDRRSYEFTATSPAEARDWVDQISFLLKDLSSLTIPYEEDEEEEEKEETYDDIDGFDSPSCGSQCRPTILPGSVGIKEPTEEKEEEDIYEVLPDEEHDLEEDESGTRRK
Turning to B5, the wild-type normalized NLR, mean over SRC kinases came to 2.53 with C1-fused SRC kinases and 1.51 with N1-fused SRC kinases.

B6: SKAP1 Link2SH3 mutant, N2-fused (domain or fragment)
chain: SSLTIPYEEDEEEEEKEETYDDIDGFDSPSCGSQCRPTILPGSVGIKEPTEEKEEEDIYEVLPDEEHDLEEDESGTRRKGVDYASYYQGLWDCHGDQPDELSFQRGDLIRILSKEYNMYGWWVGELNSLVGIVPKEYLTTAFEVEE
Regarding B6, the wild-type normalized NLR, mean over SRC kinases came to 0.51 in the assay with C1-fused SRC kinases and 0.29 with N1-fused SRC kinases.

B7: SKAP1 DomDIM mutant, N2-fused (domain or fragment)
chain: MQAAALPEEIRWLLEDAEEFLAEGLRNENLSAVARDHRDHILRGFQQIKARYYWDFQPQGGDIGQDSSDDNHSGTLGLSLTSDAPFLSDYQDEGMEDIV
Turning to B7, the wild-type normalized NLR, mean over SRC kinases with C1-fused SRC kinases was 0.32; in the assay with N1-fused SRC kinases, 0.11.
